Series [1] concerns MDA-MB-468LN human breast cancer cells. Put plainly: Tumor response, breast lymphatic tumor xenograft. The series is classed as in vivo, Nude nu/nu mice. The method, then: Nude nu/nu mice were implanted with 1×10^6 cells (MDA-MB-468LN human breast cancer cells) into the mammary fatpad, after approximately 4 weeks a 100-200 mm^3 tumor had developed in the axillary lymph node package. Animals were randomly divided into four treatment groups of five animals each: intravenous saline, s.q. HA, intravenous cisplatin, or s.q. HA-cisplatin. At this point, doses were administered to the animals. In the HA-cisplatin and the HA groups, HA-cisplatin (3.3 mg/kg based on Pt-content) or HA (3.3 mg/kg) was dissolved in 100 mcL saline was injected subcutaneously peritumorally. […] In all study groups, a second dose was administered after 1 week. Tumor volumes were measured weekly using calipers and the formula: Volume=0.52×(width^2*length). Animals were euthanized when the tumor volume exceeded […] or the body score index fell below 2.

On the set-up of series [2]: species or system Sprague-Dawley rats. Particulars: rat, in vivo, sc. The method, then:
Sprague-Dawley rats (female, 200-250 g) were cannulated in the left jugular vein under isoflurane and allowed to recover overnight. […] Subcutaneous injections were given in the uppermost right mammary fatpad of the animal. Whole blood was withdrawn (100 μl) from the cannula at 0, 5 min, 0.5, 1, 2, 4, 6, 12, 24, 48 and 96 hrs after dosing and placed into 2-ml centrifuge tubes pretreated with heparin. The cannula was washed before and after withdrawal with saline and then heparin locked. The whole blood was centrifuged at 17,000×g for 5 mins, and the plasma was frozen at −80° C. until analysis. Animals were euthanized […]. The right ipsilateral axilla nodes (treated side), left contralateral axilla nodes (control side), and major organs (liver, kidneys, heart, spleen, lungs, brain, muscle, bladder) were excised; washed with 0.9% saline; and stored at −80° C. until analysis. […] Typically, 50 mg of tissue sample was digested using 1.5 ml of 6.7% nitric acid for 2 hours at 80° C. After digestion, samples were homogenized (Tissue Tearor; BioSpec Products Inc., Bartlesville, Okla.) and centrifuged. The supernatant and plasma samples were analyzed by AAS as described in the Synthesis section.
In vitro release samples (n=3) and plasma samples (n=5) were diluted 200-fold and 10-fold, respectively, with 0.1% nitric acid for analysis. […]

Series [3] in a line: Tissue distribution after subcutaneous cisplatin or cisplatin-HA into right mammary fat pad. The class given is in vivo, Sprague-Dawley rats. The method, then: Animals were allowed to recover with access to food and water. […] Organs and tissues were washed with 0.9% saline and frozen (−80° C.) until analysis. Plasma was separated by centrifugation from whole blood and frozen (−80° C.).
In vitro release samples (n=3) and plasma samples (n=5) were diluted 200-fold and 10-fold, respectively, with 0.1% nitric acid for analysis. […] Lymph nodes were processed similarly using 10 mg of tissue. After digestion, samples were homogenized (Tissue Tearor, BioSpec Products Inc., Bartlesville, Okla.). All samples were centrifuged (17 000×g, 20 min), and the supernate used for analysis.
Analysis was performed on a Varian SpectrAA GTA-110 with graphite furnace and partition tubes. Samples (21 μL) were injected using the autosampler, followed by 19 μL of 0.1% nitric acid. […] The furnace program was as follows: ramp 25 to 80° C., hold 2 s, ramp to 120° C., hold 10 s, ramp to 1000° C., hold 5 s, ramp to 2700° C., hold 2 s, cool to 25° C. over 20 s. The graphite partition tube was cleaned every 40 samples by baking at 2800° C. for 7 s. Argon was used as the injection and carrier gas.

A further series concerns MDA-1986 cells. Put plainly: In vivo efficacy of HA-cisplatin, orthotopic HNSCC model. Particulars: subcutaneous, weekly dose of 3.3 mg/kg for 3 weeks; 5 mice. The arrangement: species or system Nu/Nu female athymic nude mice. From the text: The in vivo efficacy of HA-cisplatin was studied. All treatment began once animal HNSCC tumors reached 100 mm3 volume. Treatment commenced for 3 weeks. All animals were given 5×10^5 MDA-1986 cells in the buccal mucosa of the left cheek (which is a novel orthotopic HNSCC model I developed this year) and tumors develop in 2-3 weeks.

This is an account of results in patent US8088412B2, “Intralymphatic chemotherapy drug carriers” (priority 2008, dated 2012).

Marks after values point to notes of the source that are not given here.

[PtCl(H2O)(NH3)2]OOCO-HA [HA-cisplatin]: in series [1] (3.3 mg/kg (Pt) subcutaneously peritumorally, second dose after 1 week), the “tumor growth delay compared to negative control group” value was 5 weeks. In addition, the “toxicity in treated tumor-bearing animals” value in series [1] (3.3 mg/kg subcutaneously peritumorally, two doses) is on record as “no toxicity was observed”. The “delay before plasma platinum peaked and plateaued-off” value in series [2] came to 2 h. The “AUC in the right (draining axillary) lymph node, greater than cisplatin in saline” value in series [3] (96 hrs, subcutaneous, p=0.0001) worked out at 74%. Also, the “AUC (0-96 hrs)” value came to 194.5 µg·h/g in series [3] (Bladder, subcutaneous into right mammary fatpad of female rats); 343.7 µg·h/g in series [3] (Brain, subcutaneous into right mammary fatpad); 465.3 µg·h/g in series [3] (Heart, subcutaneous into right mammary fatpad); 668.6 µg·h/g in series [3] (Kidneys, subcutaneous into right mammary fatpad); 413.4 µg·h/g in series [3] (Left lymph node (LLN), subcutaneous into right mammary fatpad); 495.0 µg·h/g in series [3] (Liver, subcutaneous into right mammary fatpad). Also, the “AUC (0-96 hrs)” value in series [3] (Lungs, subcutaneous into right mammary fatpad) is 347.3 µg·h/g; in series [3] (Muscle, subcutaneous into right mammary fatpad), 262.1 µg·h/g; in series [3] (Plasma, subcutaneous into right mammary fatpad), 186.1 µg·h/g; in series [3] (Right lymph node (RLN), subcutaneous into right mammary fatpad, p < 0.05), 776.0 ^† μg · hr/g; in series [3] (Spleen, subcutaneous into right mammary fatpad), 383.4 µg·h/g. In series [3] (over the study period), the “distribution of cisplatin to other organs vs cisplatin” value is recorded as “not significantly different over the study period”. In series [3] (p=0.12), the “AUC in the non-draining left lymph node (LLN) vs cisplatin in saline” value was “not significantly different from cisplatin in saline”. In addition, the “plasma AUC, difference between cisplatin-HA and cisplatin” value in series [3] (p=0.13) is “not a significant difference”. The “serum Cmax” value in series [3] (subcutaneous, 3.3 mg/kg cisplatin basis, FIG. 10B) was “less than 3 micrograms/mL”. Further, the tolerability in rodents entry in series [3] (subcutaneous, after 96 hours) is on record as “well tolerated in rodents with no signs of injection site morbidity or major organ toxicity after 96 hours”. Moreover, in the series on MDA-1986 cells, the response to therapy was 2 animals had a complete response to therapy and the third (HA-cis 1) had a partial response to therapy. The tumor growth delay entry in the series with MDA-1986 cells is on record as “delayed tumor growth in all 5 animals”.
